# Measured values: patent US20240400689A1 (ANTENGENE BIOLOGICS, published 2024)
# Changes are numbered by the printed parent chain.
# T1: human CD276 protein (human, UniProt Q5ZPR3 29-534)
# T1 construct: whole, on cells; for SKOV3 and the other cancer lines the protein is the cells' own; also called B7-H3; B7H3
# T1 sequence (looked up): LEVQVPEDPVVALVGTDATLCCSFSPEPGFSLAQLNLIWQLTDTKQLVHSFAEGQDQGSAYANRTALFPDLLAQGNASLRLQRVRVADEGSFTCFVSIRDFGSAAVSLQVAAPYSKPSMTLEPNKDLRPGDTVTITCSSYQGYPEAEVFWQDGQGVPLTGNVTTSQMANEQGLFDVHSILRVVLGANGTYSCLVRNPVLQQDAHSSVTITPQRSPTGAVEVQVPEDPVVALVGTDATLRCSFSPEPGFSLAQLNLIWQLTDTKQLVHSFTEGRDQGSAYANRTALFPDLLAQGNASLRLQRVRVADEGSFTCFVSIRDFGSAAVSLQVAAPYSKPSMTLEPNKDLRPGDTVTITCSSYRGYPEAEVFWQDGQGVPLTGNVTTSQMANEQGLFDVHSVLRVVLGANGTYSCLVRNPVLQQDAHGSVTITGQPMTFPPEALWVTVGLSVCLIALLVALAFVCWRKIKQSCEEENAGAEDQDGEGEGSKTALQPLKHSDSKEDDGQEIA
# T2: mouse CD276 protein (mouse, UniProt Q8VE98 29-316)
# T2 construct: whole, on cells; also called mCD276; CHO-S-mCD276
# T2 sequence (looked up): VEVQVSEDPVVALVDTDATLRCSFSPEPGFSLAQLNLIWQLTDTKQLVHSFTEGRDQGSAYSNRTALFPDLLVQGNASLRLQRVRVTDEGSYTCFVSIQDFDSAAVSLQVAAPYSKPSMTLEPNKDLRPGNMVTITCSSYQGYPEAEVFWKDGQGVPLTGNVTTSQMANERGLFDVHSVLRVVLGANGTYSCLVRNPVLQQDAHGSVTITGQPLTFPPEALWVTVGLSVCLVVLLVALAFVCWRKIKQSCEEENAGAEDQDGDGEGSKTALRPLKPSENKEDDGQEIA
# B1: 30-C7-C11-D4 (antibody, V domains shown)
# VH: EVQLVESGPGLVKPSQSLSLTCTVTGYSITSDYAWNWIRQFPGNKLEWMGYISHSGSTSYNPSLKSRISITRDTSKNQFFLQLNSVTTEDTATYYCARSLGRRWYFDVWGAGTTVTVSS
# VL: DIVMTQSPSSLAMSVGQKVTLSCKSSQSLLNSSTQKNYLAWYQQKPGQSPKLLVYFASTRDSGVPDRFIGSGSGTEFTLTISSVQAEDLADYFCQQHYIIPFTFGAGTKLEIK
# notes: mouse monoclonal antibody (hybridoma)
# B2: 30-E2-G7-G7 (antibody, V domains shown)
# VH: EVQLQESGGGLVKPGGSLKLSCAASGFTFSYYAMSWVRQTPEKRLEWVATINGDGSHTYYPDSVRGRFTISRDNAKNTLYLQVSSLRSEDTAMYYCASLLQLGPFWGQGTTLTVSS
# VL: DIVMTQSQKFMSTSVGDRVSVTCKASQNVGTNVAWYHQRPGQSPKPLIYSASYRYSGVPDRFTGSGSGTDFTLTISNVQSEDLAEYFCQQYNNYPLTFGSGTKLEIK
# notes: as for B1
# B3: 20-F8-B5-G2 (antibody, V domains shown)
# VH: EVQLQESGPSLVKPSQTLSLTCSVTGDSITSAYWNWIRKFPGNKLEYMGYISNSGSTYYNPSLKSRISITRDTSKNQYYLQLNSVTTEDTGTYYCVRGERYYGYGAYWGQGTLVTVSA
# VL: DIVMTQATPSVPVTPGESISISCRSSKSLLHSNGNTYLYWFLQRPGQSPQLLIYRMSNLASGVPDRFSGSGSGTAFTLRISRVEAEDVGVYYCMQHLEYPFTFGAGTKLELK
# notes: as for B1
# B4: 10-B9-D10-A12 (antibody, V domains shown)
# VH: EVQLQESGPELVRPGVSVKISCKGSGYTFTDYTMHWVKLSHAKSLEWIGVISTYYGNTNYNQKFKGKATLTVDKSSSTAYMELARLTSEDSAIYYCARASYGSGYGPYYWYFDVWGAGTTVTVSS
# VL: DIQMTQSPASLFASVGETVTITCRASEKIYSYLAWYFQKQGKSPQFLVYNANALAEGVPSRFSGSGSGTQFSLKINSLQPEDFGTYYCQHHYGTPVTFGAGSKLELK
# notes: as for B1
# B5: 20-C5-D7-D3 (antibody, V domains shown)
# VH: EVQLVESGGDLVKPGGSLKLSCAASGFTFRSYGMSWVRQTPDKRLEWVATISGGGNYTYYPDSVKGRFTISRDNAKNTLYLQMSSLKSEDTAMYYCARHEGLPLDYWGQGTTLTVSS
# VL: DIQMTQSPASLSASVGETVTITCRASENIYSYLAWYQQKQGKSPQLLVYNAKTLAEGVPSRFSGSGSGTQFSLKINSLQPEDFGNFYCQHHYGTPTWTFGGGTKLEIK
# notes: as for B1
# B6: 15-G1-D1-E3 (antibody, V domains shown)
# VH: QVQLQQPGAELVKPGTSVKLSCKASGYTFTSYWIHWVKQRPGQGLEWIGMIHPKSGTVDYNEKFKSKATLTADKSSNTAYMQLSSLTSEASVVYYCARGENYDYRPQFVYWGQGTLVTVSA
# VL: QLVLTQSSSASFSLGASAKLTCTLSSQHSTYTIEWYQQQPLKPPKYVMELKKDGSHRTGDGIPDRFSGSSSGADRYLSISNIQPEDEAIYICGVGDTIKEQFVYVFGGGTKVTVL
# notes: as for B1
# B7: 9-B9-H11-G7 (antibody, V domains shown)
# VH: DVQLQESGPGLVKPSQSLSLTCSVTGYSITSGYYWNWIRQFPGNKLEWMVYISYDGTNNYNPSLKNRISITRDTSKNQFFLKLNSVTTEDTATYYCARGDSNSYYFDYWGQGTTLTVSS
# VL: QAVVTQESALTTSPGGTVILTCRSSTGAVTTSNYANWVQEKPDHLFTGLIGGTSNRAPGVPVRFSGSLIGDKAALTITGAQTEDDAMYFCALWYRTHYVFGGGTKVTVL
# notes: as for B1
# B8: 9-G12-D6-A11 (antibody, V domains shown)
# VH: B7 VH with E6V, T25A, G32D, V50G, N77G, L83F, D100K, S101D, N102G
# VL: B7 VL with K105M
# notes: as for B1
# B9: 10-G6-C4-B2 (antibody, V domains shown)
# VH: EVQLVESGGGLVQPGGSLRLSCATSGFTLSDYYMSWVRQPPGKAPEWLGFMRNKANGYTTEYSASVRGRFTISRDTSQSIIYLQMNTLRAEDGATYYCVRDRDGRPFAYWGQGTLVTVSA
# VL: DIVMTQSPSSLTVTAGEKVTMSCKSSQSLLNSINQKNFLTWYQQKPGQPPKLLIYWASTRESGVPDRFTGSGSGTDFTLTISSVQAEDLAIYYCQNDYTYPLTFGTGTKLELK
# notes: as for B1
# B10: 6-H11-G5-D8 (human IgG1 chimeric antibody) (antibody, V domains shown)
# VH: EVQLQESGPELVKPGTSVKLSCKASGYTFTSYDINWVRQRPEQGLEWIGWIFPGNGDTYYNEKFKGKATLTSDKSSSTAYMQLSRLTSEDSAVYFCARDLRLGTFDYWGQGTTLTVSS
# VL: QIVLTQSPEIMSASPGEKVTMTCSASSSVSYIHWYQQKSGTSPKRWIYDTSKLASGVPARFSGSGSGTSYSLTIRSMEAEDAATYYCQQGSSNPRTFGGGTKLELK
# notes: human IgG1 chimeric antibody of the mouse clone
# B11: 8-C3-E3-F3 (antibody, V domains shown)
# VH: EVQLVESGGGLVQPGGSLKLSCAASGFTFSNYGLSWVRLTPDKRLEVVATIGSYGGNTYYPDSVKGRFTISRDNAKNTLYLQMSSLKSEDTAIYYCARDIYYGNSEAWFAYWGQGTLVTVSA
# VL: DIVMTQAAFSNPVTLGTSASISCRSSKSLLHSNGITYLYWYLQKPGQSPQLLIYQMSNLASGVPDRFSSSGSETDFTLRISRVEAEDVGVYYCAQNLELPWTFGGGTKLEIK
# notes: as for B1
# B12: 8-B4-F5-E11 (antibody, V domains shown)
# VH: QVQLQQPGAELVKPGASVKLSCKASGDTFTSYWMHWVKQRPGQGLEWIGMIHPDSGTRNYNEKVMSKATLNVDKSSSTAYLHLSSLTSEDSAVYYCSRSYGSRLAWFAYWGQGTLVTVSA
# VL: QAVVTQESALTTSPGETVTLTCRSSTGAVTTSNFANWVQEKPDHLFTGLIGGTNNRAPGVPARFSGSLIGDKAALTITGAQTEDEAVYFCALWYTNHFIFGSGTKVTVL
# notes: as for B1
# B13: 13-E4-G9-A4 (antibody, V domains shown)
# VH: EVMLVESGGGLVKPGGSLKFSCAASGFTFITYAMSWVRQTPEKRLEWVATISGGGIDTYYPDSVKGRFTISRDNAKNTLYLQVNSLRSEDTAMYYCTRQGSQGWGAMDYWGQGTSVTVSS
# VL: QIVLTQSPPIMSASPGERVTMTCRASSRVSFMHWYQQKSGTSPRRWIYETSKLASGVPDRFSGSVSGTSYSLTISSMEAEDAATYYCQQWSSNPLTFGAGTKLELK
# notes: as for B1
# B14: 4-D5-B9-B11 (antibody, V domains shown)
# VH: EIGGLVKPGGSLKFSCAASGFTFSSYAMSWVRQTPEKRLEWVATISGGGIYYPDSVKGRFTISRDNAKNTLYLQMSSLRSEDTAMYYCARQGSKGWDAMDYWGQGTSVTVSS
# VL: B13 VL with P9A, R18K, R28S, R44K, V65G
# notes: as for B1
# B15: 25-C8-D7-C5 (antibody, V domains shown)
# VH: B13 VH with M3Q, V5Q, I30S, V83M, T97A, Q102K
# VL: B13 VL with P9A, R18K, R28S, R44K, V65G
# notes: as for B1
# Assays:
# human CD276 protein [1] = target: T1, human CD276 protein; test: FACS on CHO-S-hCD276 cells
# Protocol: (§1) Screening & Expansion—The subcloning plates were screened by protein or cell-based Elisa, and the subclones with good binding ability were expanded to 24-wells for confirmation tests. The specificity and cross-reactivity of these subclones were confirmed with FACS analysis. Briefly, parental CHO-S cells, CHO-S-hCD276, CHO-S cell line stably over-expressing Macaca fascicularis CD276, CHO-K1 S, cell line stably over-expressing mouse CD276 were incubated with antibodies produced by each subclone respectively. Fluorescent dye-conjugated secondary antibody was used to detect the binding of the primary antibody with the cells. Median fluorescence intensity was measured by FACS analysis.
# mouse CD276 protein = target: T2, mouse CD276 protein; test: FACS on CHO-S-mCD276 cells
# Protocol: as §1
# [2] = target: T3, Macaca fascicularis CD276 (Macaca fascicularis); test: FACS on CHO-S-cynoCD276 cells
# T3 construct: whole, on cells; also called cynomolgus monkey CD276; cynoCD276
# Protocol: as §1
# human CD276 protein [3] = target: T1, human CD276 protein; test: FACS on SKOV3 cells
# Text: Sequences of 31 mouse antibodies from Table 5 were selected to generate and produce human IgG1 chimeric antibodies. The binding affinity of these antibodies and bench mark antibody, Enoblituzumab (see U.S. Pat. No. 8,802,091, MGA271, specifically with a construct designated as hBRCA84D-2) and MGC018 (an antibody-drug-conjugate, in which the mAb MGA017 (human IgG1) is conjugated via a cleavable linker to the prodrug seco-DUocarmycin hydroxyBenzamide Azaindole (DUBA), an alkylating agent that can damage DNA in both dividing and non-dividing cells, thereby causing cell death) with human patient derived ovarian cancer cell line, SKOV3, was determined by FACS analysis.
# 1. Digested cells using Trypsin (1×); Centrifuged the harvested cells at 300 g for 3 min and discarding the supernatant. […] 2. Washed the cells 2 times with FACS buffer by centrifuging at 300 g for 3 min and discarding the supernatant. [0445] 3. […] Kept the cells in dark for FACS analysis.
Binder,FACS MFI (human CD276 protein [1]),FACS MFI (mouse CD276 protein),FACS MFI [2],EC50 (human CD276 protein [3]),MFI (Max) (human CD276 protein [3])
B1,138000,8220,96300,–,–
B2,47000,1300,35100,–,–
B3,88800,67000,51100,–,–
B4,400000,–,10100,–,–
B5,77000,1340,13200,–,–
B6,62500,6610,99400,–,–
B7,96800,1360,146000,–,–
B8,53200,1420,35700,–,–
B9,5650,17400,4320,–,–
B10,–,–,–,1.78 µg/mL,200
B11,63900,1320,12100,–,–
B12,40400,7370,58600,–,–
B13,149000,1370,16800,–,–
B14,145000,2100,148000,–,–
B15,148000,1160,39100,–,–
